In paper PMC6894054:

System: ILF3 mouse-human dsRBM2 (SPR) (mouse-human (so in the source))
Test: SPR
Conditions: ELISA and SPR buffers not given in the material (SPR: Biacore T100, biotin-RNA on streptavidin chip); biopanning: TENT (10 mM Tris-HCl pH 8.0, 1 mM EDTA, 250 mM)

Work on invSINEB2 of AS Uchl1 yielded a Kd of 94.9 nM.
